Literature values, collected in article PMC4918944.

Biological target: SecY (Bacillus subtilis) (UniProt P16336)
Chain of UniProt P16336 (P16336 whole entry): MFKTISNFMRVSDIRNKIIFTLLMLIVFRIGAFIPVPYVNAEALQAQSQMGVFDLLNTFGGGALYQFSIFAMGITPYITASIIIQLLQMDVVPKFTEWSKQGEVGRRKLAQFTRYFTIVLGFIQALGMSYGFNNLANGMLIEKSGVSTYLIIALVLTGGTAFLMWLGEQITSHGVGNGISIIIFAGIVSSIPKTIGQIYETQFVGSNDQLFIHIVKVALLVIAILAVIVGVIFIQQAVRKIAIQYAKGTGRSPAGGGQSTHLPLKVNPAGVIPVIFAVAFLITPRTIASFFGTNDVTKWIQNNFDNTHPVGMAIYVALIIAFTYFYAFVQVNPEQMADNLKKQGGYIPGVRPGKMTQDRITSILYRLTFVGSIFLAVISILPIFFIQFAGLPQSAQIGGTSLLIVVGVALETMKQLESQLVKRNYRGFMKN

Kd: 4 nM
Substance: SecA (from UniProt P28366)
